Measured values taken from PMC3267046.

Substrate: O=[N+]([O-])c1cn2c(n1)OC[C@@H](OCc1ccc(OC(F)(F)F)cc1)C2
Experiment: purified protein
Format: biochemical, Nocardia farcinica

B1: (Nocardia farcinica IFM 10152) (protein)
chain: MRMSSTGEYVPSPSEWIGNQVAQYEASDGAEAGEFDGRPLVILTTVGRKTGALRKTPVMRVEHDGRYAVVASQGGAPTHPAWYFNLVADPRAQLRDKDAVLSVVARELAGPERAEWWERAVRAYPTYQEYQDNTRRLIPVLLLEPGR
- Km: 21.9 µM
- kcat: 0.33 ± 0.08 s⁻¹
- kcat/Km: 16000 ± 2000 M⁻¹ s⁻¹
